Among the targets are hTSLP-R55A (human) (UniProt Q969D9); hTSLP-K21A (human) (UniProt Q969D9); hTSLP-D18A (human) (UniProt Q969D9); hTSLP-S28A (human) (UniProt Q969D9); hTSLP-E20A (human) (UniProt Q969D9); hTSLP-L133A (human) (UniProt Q969D9); hTSLP-K23A (human) (UniProt Q969D9); hTSLP-L27A (human) (UniProt Q969D9); hTSLP-S43A (human) (UniProt Q969D9); hTSLP-R131A (human) (UniProt Q969D9); hTSLP-R127A (human) (UniProt Q969D9); hTSLP-K135A (human) (UniProt Q969D9); hTSLP-N130A (human) (UniProt Q969D9); hTSLP-K32A (human) (UniProt Q969D9).

Common to all, as to test: Gator BLI, hTSLP mutant from CHO cells against 3H10-biotin

Sequence of hTSLP-K32A (human) (Q969D9 29-159 R127A/R130A): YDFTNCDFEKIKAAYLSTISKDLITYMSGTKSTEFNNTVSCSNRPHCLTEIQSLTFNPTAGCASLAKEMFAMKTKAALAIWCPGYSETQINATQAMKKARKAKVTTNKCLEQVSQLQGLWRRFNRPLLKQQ
Sequence of hTSLP-E20A (human) (Q969D9 29-159 R127A/R130A): as above
Sequence of hTSLP-L27A (human) (Q969D9 29-159 R127A/R130A): as above
Sequence of hTSLP-L133A (human) (Q969D9 29-159 R127A/R130A): as above
Sequence of hTSLP-D18A (human) (Q969D9 29-159 R127A/R130A): as above
Sequence of hTSLP-K135A (human) (Q969D9 29-159 R127A/R130A): as above
Sequence of hTSLP-K21A (human) (Q969D9 29-159 R127A/R130A): as above
Sequence of hTSLP-K23A (human) (Q969D9 29-159 R127A/R130A): as above
Sequence of hTSLP-S43A (human) (Q969D9 29-159 R127A/R130A): as above
Sequence of hTSLP-R127A (human) (Q969D9 29-159 R127A/R130A): as above
Sequence of hTSLP-S28A (human) (Q969D9 29-159 R127A/R130A): as above
Sequence of hTSLP-N130A (human) (Q969D9 29-159 R127A/R130A): as above
Sequence of hTSLP-R131A (human) (Q969D9 29-159 R127A/R130A): as above
Sequence of hTSLP-R55A (human) (Q969D9 29-159 R127A/R130A): as above

B1: 3H10-biotin protein (designed binder)
chain: GSHMDLGKKLLEAAWAGRDDEVRILMANGADVNAGDASGDTPLHLAAFSGHLEIVEVLLKHGADVNAEDLLGMTPLHLAAPFGHLEIVEVLLKHGADVNAAARNNGKTPLHLAAFVGHLEIVEVLLKNGADVNAQDKFGKTAFDISIDNGNEDLAEILQKLNG
modifications: biotin (site not stated)
On to B1, for which the Decreased fold in binding affinity compared to wild-type TSLP was 0.5 fold with hTSLP-R55A (human); 11.9 fold with hTSLP-K21A (human); 7.9 fold with hTSLP-D18A (human); 5.1 fold with hTSLP-S28A (human); 6.1 fold in the test with hTSLP-E20A (human); 2.05 fold in the test with hTSLP-L133A (human). The Decreased fold in binding affinity compared to wild-type TSLP with hTSLP-K23A (human) amounted to 2.4 fold; in the test with hTSLP-L27A (human), 9.3 fold; with hTSLP-S43A (human), 5 fold; in the test with hTSLP-R131A (human), 2.1 fold; with hTSLP-R127A (human) it was 1.8 fold; in the test with hTSLP-K135A (human) it was 1.7 fold. For the same molecule, the Decreased fold in binding affinity compared to wild-type TSLP with hTSLP-N130A (human) worked out at 2.2 fold; with hTSLP-K32A (human), 1.2 fold.

The values above are taken from US20250376501A1.
